The target in one assay is PRRC2A. The assay can be described thus: co-immunoprecipitation followed by mass spectrometry. The conditions noted are these: FLAG-tagged EIF4G2 transfected into HEK293T cells; corrected for EIF4G2 levels in IP; read off a plot.
In another assay the target is PRRC2B. The description is as above. The conditions noted are these: FLAG-tagged EIF4G2 transfected into HEK293T cells; corrected for EIF4G2 levels in IP; read off a plot.

For two substances, ratio to parent results are on record in article PMC10746786 (2023).

Turning to “FLAG-tagged EIF4G2 WT (from UniProt P78344) R165C”, the ratio to parent with PRRC2A is 3.

For the substance “FLAG-tagged EIF4G2 WT (from UniProt P78344) R178Q”, the values for the ratio to parent with PRRC2A and with PRRC2B were 3 and 2.3, respectively.
